The test deals with FLAG epitope Trypsin site N-terminally tagged 9 repeat GG biopolymer (SEQ ID NO:20).

For the substance Trypsin (type XI DPCC treated) (enzyme), the completeness of the Trypsin cleavage reaction, by relative mobility on SDS gels was 100%.

Values taken from US5710252.
